Measured values from US20170044239A1.

Columns and labels:
[1] = target: hemagglutinin on BS/07 H1N1 virus (A/Brisbane/59/2007) (Influenza A virus A/Brisbane/59/2007 (H1N1)); experiment: cell-based or functional assay
[2] = target: BS/07 H1 HA (recombinant ectodomain of hemagglutinin from A/Brisbane/59/2007, H1N1) (Influenza A virus A/Brisbane/59/2007 (H1N1))

| Substance | IC50, neutralization of BS/07 H1N1 infection [1] | normalized binding affinity [2] | normalized neutralizing potency against BS/07 H1N1 [1] |
| --- | --- | --- | --- |
| F10 IgG (antibody) | 1.85 µg/mL | – | – |
| F10 scFv (phage-free soluble, E-tag) | – | 1 | 1 |
